Test results as given in US20040082509.

System: T1, L-JBD20 peptide (20 amino acid minimal JNK-inhibitory sequence of JIP-IB1)
T1 sequence: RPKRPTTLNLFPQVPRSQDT

caK
caK kinase activity (substrate caseine) at the tested peptide concentration: 500 µM of the JBD20 peptides did not interfere with the activity of 6 particular kinases: ERK2, p38, pKC, p34, caK and pKA

p34
p34 kinase activity (substrate histone) at the tested peptide concentration: 500 µM of the JBD20 peptides did not interfere with the activity of 6 particular kinases: ERK2, p38, pKC, p34, caK and pKA

p38
p38 kinase activity (substrate ATF2) at the tested peptide concentration: 500 µM of the JBD20 peptides did not interfere with the activity of 6 particular kinases: ERK2, p38, pKC, p34, caK and pKA

pKA
pKA kinase activity (substrate histone) at the tested peptide concentration: 500 µM of the JBD20 peptides did not interfere with the activity of 6 particular kinases: ERK2, p38, pKC, p34, caK and pKA

pKC
pKC kinase activity (substrate histone) at the tested peptide concentration: 500 µM of the JBD20 peptides did not interfere with the activity of 6 particular kinases: ERK2, p38, pKC, p34, caK and pKA
